# No end group written: not given here.
# Tests used:
# [1] = system: model tumor growth and angiogenesis; details: in vivo; cited from earlier work
# αVβ3 [2] = biological target: T1, αVβ3 (Homo sapiens, UniProt P05106+P06756); assay: AP5 epitope expression on K562-αVβ3 cells preincubated with knottin-Fc; assay type: cell-based; details: Ca2+ and Mg2+ 1 mM each
# T1 construct: expressed in transfected cells
# Experimental: Cells were washed, resuspended, fixed in 4% paraformaldehyde, and analyzed using FACSCalibur or BD-LSRII flow cytometers (BD Biosciences). Binding of soluble knottin dimers to αVβ3-K562 cells was expressed as mean fluorescence intensity (MFI), as determined using FlowJo software. […] Alexa647-labeled mAb AP5 Fab (10 μg/ml) was added, and cells incubated for an additional 30 min before washing. APC-labeled goat anti-mouse Fc-specific antibody was added to anti-LIBS-1- or anti-LIBS-6-bound M21 cells for an additional 30 min at 4° C. Cells were then washed, resuspended, fixed in 4% paraformaldehyde and analyzed by flow cytometry. AP5 epitope expression was measured and expressed as MFI.
# Cells were washed, resuspended, fixed in 4% paraformaldehyde, and analyzed using FACSCalibur or BD-LSRII flow cytometers (BD Biosciences). Binding of soluble knottin dimers to αVβ3-K562 cells was expressed as mean fluorescence intensity (MFI), as determined using FlowJo software. […] APC-labeled goat anti-mouse Fe-specific antibody was added to anti-LIBS-1- or anti-LIBS-6-bound M21 cells for an additional 30 min at 4° C. Cells were then washed, resuspended, fixed in 4% paraformaldehyde and analyzed by flow cytometry. AP5 epitope expression was measured and expressed as MFI.
# αVβ3 [3] = biological target: T1, αVβ3; assay: Binding of knottin-Fc fusion proteins to K562-αVβ3 cells (FACS); details: Fc fusion in culture supernatant; Ca2+ and Mg2+ 1 mM each
# Text: The wild type and modified versions were transiently expressed in HEK293 cells grown in 3% FBS. Culture supernatant contained equivalent amounts of the respective fusion proteins (verified by ELISA) and of the correct size (using western blotting with anti-his tag antibody). Binding of each to K562 cells expressing recombinant αVβ3 (K562-αVβ3) was examined using FACS as described in the methods section of the above-referenced paper, except that the unlabeled bound knottin was detected by adding fluorescienated anti-human Fc mAb.
# Wild type and P/W substituted forms of knottin 2.5 F were expressed as Fc fusion proteins in mammalian cells and their abilities to bind cellular αVβ3 and to express the LIBS mAb AP5 were compared. αVβ3-K562 (1×10^6) cells were suspended in 100 μl of culture supernatant containing equivalent amounts (based on ELISA) of WT knottin 2.5 F-Fc fusion protein, knottin 2.5 F (P/W)-Fc, WT knottin 2.5 D-Fc, or knottin 2.5 F (A/W)-Fc or medium alone and incubated for 30 min; 25° C., washed in 400 μl buffer and fluoresceinated anti-FC-specific antibody added for an additional 30 min at 4° C. Cells were washed, resuspended, fixed in 4% paraformaldehyde, and analyzed using FACSCalibur or BD-LSRII flow cytometers (BD Biosciences). Binding of soluble knottin dimers to αVβ3-K562 cells was expressed as mean fluorescence intensity (MFI), as determined using FlowJo software. […]
# K562-αVβ3 cells = assay: Mn2+-induced spreading of K562-αVβ3 cells on immobilized FN forms; assay type: cell-based, human; details: 1 mM Mn2+
# Experimental: The various FN-coated surfaces were washed with PBS, and blocked with bovine serum albumin (5% w/v in PBS; lh; 25° C.). K562-αVβ3 cells (5×10^4) were added (in TBS; 1 mM Mn^2+), in the absence or presence of LM609 mAb (10 μg/ml, added 15 min prior to plating). Cells were incubated (2 h; 37° C.), washed three times in warm TBS and fixed with 4% formaldehyde (in PBS; 25° C.; 10 min). Images were captured using an inverted phase microscope (Zeiss Axiovert 40CFL) fitted with a powershot G12 Cannon Camera. ImageJ 1.48a software (National Institutes of Health, USA) was used to quantify cell spreading of 300-400 random selected cells. Spread cells were clearly distinguishable from round, refringent non-spread cells. Representative phase contrast images were collected using Zeiss Axiovert 35 inverted microscope using a CCD camera and Spot software (Diagnostics Instruments). Adhesion of transiently transfected HEK293 expressing equivalent amounts of αVβ3(N339/S) or αV(N266/Q)β3(N339/S) was done by adding cells (3×10^4) in TBS containing Ca^2+/Mg^2+ and 0.1% BSA (w/v) to FN-coated surfaces (45 min; 25° C.). Non-adherent cells were removed by washing and adherent cells fixed (2% paraformaldehyde; 30 min; 25° C.), stained (0.1% Crystal Violet; 30 min; 25° C.), washed with water, air dried and then solubilized (1% SDS). Relative cell attachment was estimated by absorbance of the lysates at 540 nm measured using a SpectraMax M2E microplate reader (Molecular Devices, Sunnyvale, Calif.).
# αVβ3 ectodomain = biological target: T2, αVβ3 ectodomain (Homo sapiens, UniProt P05106+P06756); assay: Hydrodynamic shift assay (molecular sieve chromatography, Stokes radius); details: in Mn2+ (6.3 nm without ligand)
# T2 construct: αVβ3 ectodomain was incubated alone or with FN10; made in house; host or cells: insect cells
# Experimental: αVβ3 ectodomain was incubated alone or with FN10 (at 2:1 FN10/integrin molar ratio) in 145 mM NaCl and 25 mM Tris-HCl, pH 7.4 (TBS) containing Ca^2+, Ca^2+/Mg^2+ or Mn^2+ (20° C.; 1.5 h). Aliquots were taken and chromatographed at room temperature at this time point on a precalibrated Superdex S-200 GL column equilibrated buffer with the same metal ion composition used during the incubation, and Stokes radii were derived as described previously (Xiong, J. P. et al. The Journal of Cell Biology 186, 589-600 (2009)). The elution profiles resolved by molecular sieve chromatography were monitored in-line by UV adsorption at 280 nm. Unliganded ±FN10-treated αVβ3 species were resolved as single discrete symmetrical peaks. Excess FN10 served as an internal standard. Identity of resolved peaks was formally confirmed by SDS-PAGE.
# αVβ3(N339/S) = biological target: T3, αVβ3(N339/S) (Homo sapiens, UniProt P05106+P06756, N365S); assay: Binding of fluoresceinated FN10 to WT αVβ3 or αVβ3(N339/S) expressed on HEK293T cells
# T3 construct: pcDNA3 plasmids encoding full-length WT αVβ3, αVβ3(Y122/A), αVβ3(N339/S); expressed in transfected cells; host or cells: HEK293T (transient)
# Experimental: The human erythroleukemia cell line K562 stably expressing recombinant αVβ3 (K562-αVβ3) and the human melanoma cell line M21, which constitutively expresses αVβ3, have been previously described (Xiong, J. P. et al. The Journal of Cell Biology 186, 589-600 (2009); and Mitjans, F. et al. J Cell Sci 108 (Pt 8), 2825-2838 (1995)). Cells were maintained in Iscove's modified Dulbecco's medium (K562-αVβ3) or RPMI1640 (M21), supplemented with 10% fetal calf serum, 2 mM L-glutamine, penicillin and streptomycin, plus G418 (0.5-1.0 mg/ml) in cultured K562-αVβ3. HEK293T (ATCC) were transiently co-transfected with pcDNA3 plasmids encoding full-length WT αVβ3, αVβ3(Y122/A), αVβ3(N339/S), or αV(N266/Q)β3(N339/S) using Lipofectamine 2000 reagent (Invitrogen) according to the manufacturer's protocol.
# In cellular and biochemical assays where calcium, magnesium or manganese ions were used, they were each at final concentrations of 1 mM. […] Binding of soluble FN10 to αVβ3^+ cells was expressed as mean fluorescence intensity (MR), as determined using the CellQuest software (BD). […] Mean and SD from independent experiments were calculated, and compared using Student's t test.
# α5β1 = α5β1 (Homo sapiens, UniProt P05556+P08648); details: Moore et al, 2013; cited from earlier work
# αVβ5 = αVβ5 (Homo sapiens, UniProt P06756+P18084); details: Moore et al, 2013; cited from earlier work
# αVβ3 [4] = biological target: T1, αVβ3; assay: Binding of fluoresceinated fluid-phase FN10 to K562-αVβ3 cells (flow cytometry); details: 1 mM Ca2+/Mg2+; fold over background
# Experimental: In cellular and biochemical assays where calcium, magnesium or manganese ions were used, they were each at final concentrations of 1 mM. Cells stably (K562) or transiently (I-fEK293T) expressing WT or mutant forms of αVβ3 were preincubated (30 min; 0° C.) in the dark with Alexa647-conjugated AP3 (10 μg/ml), washed in Hepes-buffered saline (20 mM Hepes, 150 mM NaCl, pH 7.4) containing BSA (0.1% w/v; washing buffer, WB), incubated in 10 mM EDTA in WB (5 min; 25° C.), then washed three times in WB. […] Binding of soluble FN10 to αVβ3^+ cells was expressed as mean fluorescence intensity (MR), as determined using the CellQuest software (BD). Binding of soluble FN10 to HEK293T was normalized by dividing its MFI by the MFI of Alexa647-conjugated AP3 to the same cells and multiplying by 100. Mean and SD from independent experiments were calculated, and compared using Student's t test.
# αIIbβ3^N/S = biological target: T4, αIIbβ3^N/S (Homo sapiens, UniProt P05106+P08514, N365S); assay: Binding of fluorescein-tagged hFN10-G to preactivated cellular αIIbβ3(N/S); details: N339 to S activation
# T4 construct: expressed in transfected cells
# Text: (§1) FIG. 9. […] (A) Superposed RGD-containing loops of hFN10 (gray in original), hFN10-G (pink in original) onto the RGD loop of frog γC (green in original). Sphere represents the metal ion at MIDAS.
# αVβ3^N/S = αVβ3^N/S (Homo sapiens, UniProt P05106+P06756, N365S); assay: Binding of fluorescein-tagged hFN10-G to preactivated cellular αVβ3(N/S); design: pcDNA3 plasmids encoding full-length WT αVβ3, αVβ3(Y122/A), αVβ3(N339/S); expressed in transfected cells; host or cells: HEK293T (transient); details: N339 to S activation
# Text: as §1
# T1 sequence (P06756 31-889 limits assumed): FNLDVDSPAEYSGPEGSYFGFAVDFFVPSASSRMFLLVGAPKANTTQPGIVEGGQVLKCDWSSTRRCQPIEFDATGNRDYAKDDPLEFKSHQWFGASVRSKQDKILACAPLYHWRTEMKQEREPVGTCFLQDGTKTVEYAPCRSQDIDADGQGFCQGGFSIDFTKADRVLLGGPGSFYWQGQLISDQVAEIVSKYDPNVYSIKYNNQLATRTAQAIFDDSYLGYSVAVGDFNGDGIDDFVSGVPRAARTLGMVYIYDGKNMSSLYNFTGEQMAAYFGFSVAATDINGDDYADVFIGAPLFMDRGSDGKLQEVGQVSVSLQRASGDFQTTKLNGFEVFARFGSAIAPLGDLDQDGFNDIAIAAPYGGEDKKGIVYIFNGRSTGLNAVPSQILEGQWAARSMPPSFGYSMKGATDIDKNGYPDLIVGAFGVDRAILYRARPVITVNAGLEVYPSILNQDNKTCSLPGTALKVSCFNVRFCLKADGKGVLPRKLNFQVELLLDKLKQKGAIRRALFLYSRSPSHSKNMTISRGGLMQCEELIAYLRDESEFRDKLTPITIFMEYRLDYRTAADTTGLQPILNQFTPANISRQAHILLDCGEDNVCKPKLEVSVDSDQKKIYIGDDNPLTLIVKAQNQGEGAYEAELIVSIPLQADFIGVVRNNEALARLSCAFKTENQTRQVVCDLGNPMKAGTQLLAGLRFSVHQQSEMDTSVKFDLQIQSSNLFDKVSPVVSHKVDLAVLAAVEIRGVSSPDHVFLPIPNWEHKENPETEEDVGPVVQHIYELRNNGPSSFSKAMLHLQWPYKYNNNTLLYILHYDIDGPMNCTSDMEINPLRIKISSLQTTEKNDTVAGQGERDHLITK
# T1 sequence (P06756 891-1048 partner limits assumed): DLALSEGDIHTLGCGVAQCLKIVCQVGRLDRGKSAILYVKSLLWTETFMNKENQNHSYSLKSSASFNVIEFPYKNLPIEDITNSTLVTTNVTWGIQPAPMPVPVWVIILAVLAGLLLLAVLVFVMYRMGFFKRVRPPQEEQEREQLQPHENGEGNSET
# T1 sequence (P05106 27-788): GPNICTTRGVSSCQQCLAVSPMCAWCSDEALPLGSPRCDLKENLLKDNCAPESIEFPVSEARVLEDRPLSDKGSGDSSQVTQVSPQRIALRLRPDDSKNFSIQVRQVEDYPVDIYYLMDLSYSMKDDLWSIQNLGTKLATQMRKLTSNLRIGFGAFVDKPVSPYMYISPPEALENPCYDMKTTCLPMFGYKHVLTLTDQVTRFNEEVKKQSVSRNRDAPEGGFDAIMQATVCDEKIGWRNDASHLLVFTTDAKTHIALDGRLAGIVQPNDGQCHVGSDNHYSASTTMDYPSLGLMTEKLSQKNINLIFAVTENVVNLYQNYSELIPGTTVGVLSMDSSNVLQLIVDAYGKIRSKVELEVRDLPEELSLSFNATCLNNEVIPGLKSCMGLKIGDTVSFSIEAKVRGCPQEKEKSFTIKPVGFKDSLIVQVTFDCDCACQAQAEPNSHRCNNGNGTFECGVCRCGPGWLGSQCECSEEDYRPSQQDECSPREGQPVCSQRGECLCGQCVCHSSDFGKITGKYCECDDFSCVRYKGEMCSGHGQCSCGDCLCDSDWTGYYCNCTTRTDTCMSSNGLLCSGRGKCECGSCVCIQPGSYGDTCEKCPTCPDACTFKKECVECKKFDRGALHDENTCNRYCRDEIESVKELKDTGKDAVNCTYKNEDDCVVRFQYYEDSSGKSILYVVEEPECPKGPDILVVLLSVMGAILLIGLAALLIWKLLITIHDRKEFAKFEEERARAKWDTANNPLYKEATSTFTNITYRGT
# T2 sequence (P06756 31-987): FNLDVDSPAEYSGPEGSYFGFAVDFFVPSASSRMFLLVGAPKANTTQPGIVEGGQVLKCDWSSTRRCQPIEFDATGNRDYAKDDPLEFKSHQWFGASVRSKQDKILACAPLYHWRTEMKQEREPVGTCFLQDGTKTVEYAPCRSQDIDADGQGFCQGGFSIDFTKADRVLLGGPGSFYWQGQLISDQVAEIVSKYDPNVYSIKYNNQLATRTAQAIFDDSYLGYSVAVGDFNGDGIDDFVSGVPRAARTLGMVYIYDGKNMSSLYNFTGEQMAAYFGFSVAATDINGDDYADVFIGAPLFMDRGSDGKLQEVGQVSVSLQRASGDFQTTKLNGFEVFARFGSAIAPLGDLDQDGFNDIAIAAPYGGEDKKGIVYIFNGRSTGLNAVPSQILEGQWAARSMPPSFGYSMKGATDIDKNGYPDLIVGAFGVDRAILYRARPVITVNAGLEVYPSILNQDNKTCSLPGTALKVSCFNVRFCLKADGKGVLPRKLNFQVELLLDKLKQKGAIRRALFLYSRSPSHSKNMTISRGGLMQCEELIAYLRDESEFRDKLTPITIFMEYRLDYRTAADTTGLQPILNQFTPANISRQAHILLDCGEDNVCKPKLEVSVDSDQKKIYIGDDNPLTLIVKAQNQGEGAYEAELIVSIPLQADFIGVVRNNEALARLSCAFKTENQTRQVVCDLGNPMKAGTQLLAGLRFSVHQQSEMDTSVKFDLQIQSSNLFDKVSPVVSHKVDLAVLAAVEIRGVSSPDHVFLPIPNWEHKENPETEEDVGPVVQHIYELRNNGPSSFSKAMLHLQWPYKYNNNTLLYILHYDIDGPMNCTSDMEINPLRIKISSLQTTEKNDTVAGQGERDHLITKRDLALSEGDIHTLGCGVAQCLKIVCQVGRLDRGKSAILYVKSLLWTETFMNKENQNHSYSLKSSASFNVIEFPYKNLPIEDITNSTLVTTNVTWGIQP
# T2 sequence (P05106 27-718): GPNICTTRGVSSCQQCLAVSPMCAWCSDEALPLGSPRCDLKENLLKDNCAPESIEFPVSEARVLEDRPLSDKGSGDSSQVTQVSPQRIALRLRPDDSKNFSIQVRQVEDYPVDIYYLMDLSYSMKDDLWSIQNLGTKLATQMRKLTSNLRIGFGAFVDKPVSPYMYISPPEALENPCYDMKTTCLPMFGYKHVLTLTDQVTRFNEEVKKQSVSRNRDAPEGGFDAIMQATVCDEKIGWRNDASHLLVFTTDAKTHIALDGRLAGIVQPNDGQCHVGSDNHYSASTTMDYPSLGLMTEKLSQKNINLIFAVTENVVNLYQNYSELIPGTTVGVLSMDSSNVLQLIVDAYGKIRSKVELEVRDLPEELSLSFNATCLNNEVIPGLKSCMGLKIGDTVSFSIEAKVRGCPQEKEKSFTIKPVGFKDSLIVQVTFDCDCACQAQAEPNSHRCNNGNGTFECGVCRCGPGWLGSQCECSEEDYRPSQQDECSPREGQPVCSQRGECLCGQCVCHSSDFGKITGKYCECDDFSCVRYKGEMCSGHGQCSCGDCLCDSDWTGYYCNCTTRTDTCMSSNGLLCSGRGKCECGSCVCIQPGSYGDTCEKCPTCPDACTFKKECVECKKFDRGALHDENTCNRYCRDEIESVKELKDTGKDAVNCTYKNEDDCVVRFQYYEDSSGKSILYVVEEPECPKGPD
# T3 sequence (P06756 31-889 limits assumed): as the sequence (P06756 31-889 limits assumed) above
# T3 sequence (P06756 891-1048 partner limits assumed): as the sequence (P06756 891-1048 partner limits assumed) above
# T3 sequence (P05106 27-788 N365S): as the sequence (P05106 27-788) above, with N339S counted along it
# Chain of αVβ3^N/S (P06756 31-889 limits assumed): as the sequence (P06756 31-889 limits assumed) above
# Chain of αVβ3^N/S (P06756 891-1048 partner limits assumed): as the sequence (P06756 891-1048 partner limits assumed) above
# Chain of αVβ3^N/S (P05106 27-788 N365S): as the sequence (P05106 27-788) above, with N339S counted along it
# Chain of αVβ5 (P06756 31-889 limits assumed): as the sequence (P06756 31-889 limits assumed) above
# Chain of αVβ5 (P06756 891-1048 partner limits assumed): as the sequence (P06756 891-1048 partner limits assumed) above
# Chain of αVβ5 (P18084 24-799): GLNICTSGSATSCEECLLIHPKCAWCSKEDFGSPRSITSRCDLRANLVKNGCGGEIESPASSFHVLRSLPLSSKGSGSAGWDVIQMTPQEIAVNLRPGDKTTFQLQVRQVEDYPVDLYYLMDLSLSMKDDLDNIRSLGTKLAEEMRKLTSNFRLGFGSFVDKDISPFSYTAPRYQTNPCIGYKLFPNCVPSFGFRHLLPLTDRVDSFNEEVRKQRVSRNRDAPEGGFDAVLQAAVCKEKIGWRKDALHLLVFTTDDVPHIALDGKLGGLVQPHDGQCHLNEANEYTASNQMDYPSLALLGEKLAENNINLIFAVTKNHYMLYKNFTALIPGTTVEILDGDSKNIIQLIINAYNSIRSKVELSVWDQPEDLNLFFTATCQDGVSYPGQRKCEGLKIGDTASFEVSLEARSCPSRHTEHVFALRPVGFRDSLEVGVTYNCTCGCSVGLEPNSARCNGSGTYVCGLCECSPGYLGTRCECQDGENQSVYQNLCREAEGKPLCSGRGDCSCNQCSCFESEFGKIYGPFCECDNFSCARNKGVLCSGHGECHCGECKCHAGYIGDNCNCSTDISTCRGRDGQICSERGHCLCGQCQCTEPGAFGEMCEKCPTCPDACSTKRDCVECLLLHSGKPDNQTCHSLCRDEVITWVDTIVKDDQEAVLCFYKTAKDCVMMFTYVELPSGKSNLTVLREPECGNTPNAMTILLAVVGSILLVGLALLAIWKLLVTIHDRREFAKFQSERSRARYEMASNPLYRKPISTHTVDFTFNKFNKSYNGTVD
molecule,measurement,setting,value
CC(C)[C@H]1C(=O)N[C@@H](CCCN=C(N)N)C(=O)NCC(=O)N[C@@H](CC(=O)O)C(=O)N[C@H](Cc2ccccc2)C(=O)N1C [cilengitide],Effect on model tumor growth and angiogenesis,[1],paradoxically stimulated model tumor growth and angiogenesis
"P/W knottin 2.5 F: knottin 2.5 F with Proline 10 replaced by Trp, expressed as Fc fusion protein (GCPRPRGDNWPLTCSQDSDCLAGCVCGPNGFCG; disulfide (positions not given here); also: cystine-knot disulfide bonds, pairing not given here, Fc fusion protein)",AP5 expression / integrin activation on K562-αVβ3,αVβ3 [2],suppressed AP5 expression
same,Binding to cellular αVβ3 (K562-αVβ3),αVβ3 [3],equivalent
full-length FN: full-length human plasma fibronectin from Sigma-Aldrich,Spreading of K562-αVβ3 cells on immobilized ligand,K562-αVβ3 cells,extensive spreading
"hFN10: mutant high affinity form of the 10th type-III domain of fibronectin, loop PRGDWNEG, SEQ ID NO: 9",Stokes' radius (Rs) of αVβ3 complex,αVβ3 ectodomain,6.3 nm
same,Spreading of K562-αVβ3 cells on immobilized ligand,K562-αVβ3 cells,little spreading
same,Binding to WT αVβ3 versus active αVβ3(N339/S),αVβ3(N339/S),similar
"knottin 2.5 F: cysteine-knot peptide, chemically synthesized, published sequence (Kimura et al 2009) (GCPRPRGDNPPLTCSQDSDCLAGCVCGPNGFCG)",Binding to integrin α5β1,α5β1,binds
same,Binding to integrin αVβ5,αVβ5,binds
"wtFN10: 10th type-III RGD-domain of wild-type human fibronectin, loop GRGDSPAS, SEQ ID NO: 20 [reference compound]",Stokes' radius (Rs) of αVβ3 complex,αVβ3 ectodomain,6.6 nm
same,Spreading of K562-αVβ3 cells on immobilized ligand,K562-αVβ3 cells,extensive spreading
same,Binding of fluoresceinated FN10 to K562-αVβ3,αVβ3 [4],low background
"hFN10-G: hFN10 with a glycine inserted after proline 1492, SEQ ID NO: 29 (protein) SDVPRDLEVVAATPTSLLISWDAPAVTVRYYRITYGETGGNSPVQEFTVPGSKSTATISGLKPGVDYTITVYAVTPGRGDWNEGSKPISINY",Binding to preactivated cellular αIIbβ3^N/S,αIIbβ3^N/S,some binding
same,Binding to preactivated cellular αVβ3^N/S,αVβ3^N/S,did not bind

# — patent US10533044B2, “Integrin Antagonists” (The General Hospital Corporation, priority 2014, dated 2020)
